Laboratory results published in the supplement of paper PMC7877785.
± gives the uncertainty stated by the source.

Test: self-splicing fitness, log relative to wild type (ln ratio); higher = more splicing; Tetrahymena group I intron in knt gene, E. coli kanamycin selection, DiMSum; sequences stand for … in CUCUCU…GGAGGGAAAAGUUAUCAGGCAUGCACCUGGUAGCUAGUCUUUAAACCAAUAGAUUGCAUCGGUUUAAAAGGCAAGACCGUCAAAUUGCGGGAAAGGGGUCAACAGCCGUUCAGUACCAAGUCUCAGGGGAAACUUUGAGAUGGCCUUGCAAAGGGUAUGGUAAUAAGCUGACGGACAUGGUCCUAACCACGCAGCCAAGUCCUAAGUCAACAGAUCUUCUGUUGAUAUGGAUGCAGUUCACAGACUAAAUGUCGGUCGGGGAAGAUGUAUUCUUCUCAUAAGAUAUAGUCGGACCUCUCCUUAAUGGGAGCUAGCGGAUGAAGUGAUGCAACACUGGAGCCGCUGGGAACUAAUUUGUAUGCGAAAGUAUAUUGAUUAGUUUUGGAGUACUCGUGGUCG
Method in brief: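 Fitness was computed with DiMSum as the error-weighted combination of replicate fold changes, kanamycin versus none, each normalised to wild type. The library randomised all eight intron nucleotides of the P1ex region, with the intron placed in the knt kanamycin-resistance gene on pET-22b(+) in E. coli BL21(DE3). Six replicate transformations were grown overnight at 37°C or 30°C on LB agar with or without 25 μg/mL kanamycin, plus 100 μg/mL carbenicillin, 50 μM IPTG and 0.2% rhamnose. Pooled colonies were amplicon-sequenced on an Illumina HiSeq 2500.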

| Sequence | self-splicing fitness (ln) (30 °C) | self-splicing fitness (ln) (37 °C) |
| --- | --- | --- |
| CUAUAGCAAUAUUACGCUGC | -3.11 ± 0.36 |  |
| GGCGAGCAAUAUUACGAGUG | -1.67 ± 0.19 | -1.47 ± 0.3 |
| CUGUAGCAAUAUUACGUUCU | -3.72 ± 0.34 | -2.94 ± 0.4 |
| CGCAAGCAAUAUUACGCACU | -0.441 ± 0.092 | -0.325 ± 0.11 |
| CGGUAGCAAUAUUACGUAUC | -2.67 ± 0.15 | -2.83 ± 0.29 |
| AGGGAGCAAUAUUACGGUGG | -3.72 ± 0.27 | -3.79 ± 0.36 |
| UGUAAGCAAUAUUACGUAUC | -3.17 ± 0.23 | -2.13 ± 0.24 |
| CCGUAGCAAUAUUACGACCG | -0.302 ± 0.12 | 0.31 ± 0.2 |
| GAACAGCAAUAUUACGUCCU | -1.24 ± 0.09 | -0.941 ± 0.11 |
| UAGAAGCAAUAUUACGGAUG | -1.41 ± 0.099 | -0.694 ± 0.12 |
| GGACAGCAAUAUUACGGGGC | -1.63 ± 0.092 | -1.72 ± 0.13 |
| AGAUAGCAAUAUUACGCGGG | -1.66 ± 0.13 | -1.68 ± 0.15 |
| CACGAGCAAUAUUACGAAAG | -3.34 ± 0.3 | -2.22 ± 0.36 |
| GUUUAGCAAUAUUACGCGCA | -0.466 ± 0.1 | -0.363 ± 0.12 |
| ACUCAGCAAUAUUACGCGUG | -1.35 ± 0.073 | -0.547 ± 0.081 |
| AUUCAGCAAUAUUACGGUUU | -0.00618 ± 0.064 | -0.247 ± 0.072 |
| CGCAAGCAAUAUUACGCCUC | -3.64 ± 0.22 | -1.78 ± 0.15 |

| Sequence | self-splicing fitness (ln) (30 °C) | self-splicing fitness (ln) (37 °C) |
| --- | --- | --- |
| CUGCAGCAAUAUUACGAAAA |  | -2.19 ± 0.31 |
| UUAGAGCAAUAUUACGUUCA | -0.27 ± 0.14 | -0.536 ± 0.17 |
| GCGAAGCAAUAUUACGGUCU | -1.71 ± 0.085 | -0.493 ± 0.089 |
| GAAAAGCAAUAUUACGCAGG | -2.07 ± 0.076 | -1.85 ± 0.087 |
| CUUAAGCAAUAUUACGUGAA | -2.87 ± 0.12 | -2.55 ± 0.29 |
| AGUCAGCAAUAUUACGUGUG | -2.26 ± 0.099 | -1.57 ± 0.11 |
| AUAUAGCAAUAUUACGCAAC | -3.95 ± 0.32 | -1.96 ± 0.27 |
| UUAGAGCAAUAUUACGCCAG | -0.402 ± 0.15 | 0.228 ± 0.23 |
| UCUUAGCAAUAUUACGAACU | -2.7 ± 0.36 | -1.84 ± 0.25 |
| UUGGAGCAAUAUUACGAAUC |  | -2.58 ± 0.5 |
| GGGAAGCAAUAUUACGAGAG | -3.24 ± 0.27 | -2.46 ± 0.24 |
| GGUGAGCAAUAUUACGUGCC | -3.67 ± 0.33 | -2.67 ± 0.38 |
| CGGAAGCAAUAUUACGCAGC | -3.56 ± 0.37 | -1.49 ± 0.27 |
| AGAUAGCAAUAUUACGUUUC | -3.56 ± 0.29 |  |
| GAUGAGCAAUAUUACGUAGC | -3.69 ± 0.34 | -1.74 ± 0.25 |
| GGCGAGCAAUAUUACGUAAU | -1.4 ± 0.13 | -0.339 ± 0.14 |
| GAAAAGCAAUAUUACGCCAU | -2.84 ± 0.15 | -1.57 ± 0.15 |
